{"source": "patent US8980955", "about": "“Small molecule inhibitors of replication protein A that also act synergistically with cisplatin” (Indiana University Research and Technology)", "key": {"EcSSB": {"molecular_target": "EcSSB (Escherichia coli, UniProt P0AGE0 P0AGE0:2-178)", "sequence (P0AGE0 2-178, one chain of several)": "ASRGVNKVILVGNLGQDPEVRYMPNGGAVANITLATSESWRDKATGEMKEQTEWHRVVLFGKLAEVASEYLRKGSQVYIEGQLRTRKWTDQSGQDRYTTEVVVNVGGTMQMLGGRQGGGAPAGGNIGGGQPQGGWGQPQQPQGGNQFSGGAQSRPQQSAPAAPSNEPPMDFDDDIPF", "assay": "EMSA; 25 nM DNA, 3.3 nM SSB tetramer, 20 mM HEPES pH 7.5, 100 mM NaCl; unaffected by CheSS19, MCI13E, MCI13F", "conditions": "tags: Enzymatics, Beverly MA; chain copies: 4 stated; label: 5'-32P", "protocol": "Referring now to FIG. 6B. CheSS19 titration in EcSSB DNA-binding reactions. CheSS19 (0, 25, 50, 100, and 200 μM) was pre-incubated with EcSSB and binding reactions were carried out. Referring now to FIG. 6C. Titration of MCI13E and MCI13F in EcSSB DNA-binding reactions. Concentrations of MCI13E/F used were: 0, 25, 50, 100, and 200 μM. In all panels, the 'Free' ssDNA is indicated with an arrow and the 'Bound' ssDNA is indicated by brackets. All reactions were performed in the same order and manner as the RPA binding reactions. EcSSB binding was unaffected by CheSS19 and the MCI13E and MCI13F compounds (FIGS. 6A and B).\nEMSAs were performed similarly to those for the RPA constructs, with the following exceptions. Reactions contained 25 nM of 5'-[^32P]-labeled 3Pc3 ssDNA and 3.3 nM (assuming homotetramer formation) SSB protein (Enzymatics, Beverly, Mass.). Reactions (20 μL) were carried out in 20 mM HEPES, pH 7.5, 1 mM DTT, 0.01% NP-40, 100 mM NaCl, and resolved by 6% native polyacrylamide gel electrophoresis at 25 mA for 2 hours. Gels were dried and quantified via phosphorimager analysis and ImageQuant software (Molecular Dynamics)."}, "[1]": {"molecular_target": "T1, RPA heterotrimer (p70/p34/p14, full-length) (Homo sapiens, UniProt P27694;P15927;P35244 P27694:1-616,P15927:1-270,P35244:1-121)", "T1 sequence (P27694 whole entry, chain 1 of 3)": "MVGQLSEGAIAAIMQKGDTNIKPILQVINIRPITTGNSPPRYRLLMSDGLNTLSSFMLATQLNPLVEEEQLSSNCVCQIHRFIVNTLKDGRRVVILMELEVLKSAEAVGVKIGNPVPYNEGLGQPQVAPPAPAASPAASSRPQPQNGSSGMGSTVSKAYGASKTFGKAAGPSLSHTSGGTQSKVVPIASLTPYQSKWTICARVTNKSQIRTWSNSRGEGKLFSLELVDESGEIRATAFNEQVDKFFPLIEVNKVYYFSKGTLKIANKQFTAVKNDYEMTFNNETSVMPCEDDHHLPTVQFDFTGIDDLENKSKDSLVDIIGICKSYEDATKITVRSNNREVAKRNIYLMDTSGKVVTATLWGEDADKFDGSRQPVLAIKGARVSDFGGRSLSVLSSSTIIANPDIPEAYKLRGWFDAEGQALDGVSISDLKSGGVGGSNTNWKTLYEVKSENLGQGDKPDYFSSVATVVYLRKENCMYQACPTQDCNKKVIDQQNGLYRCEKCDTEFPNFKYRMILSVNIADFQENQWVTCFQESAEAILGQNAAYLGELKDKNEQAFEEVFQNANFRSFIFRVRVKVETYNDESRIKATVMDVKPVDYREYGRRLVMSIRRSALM", "T1 sequence (P15927 whole entry, chain 2 of 3)": "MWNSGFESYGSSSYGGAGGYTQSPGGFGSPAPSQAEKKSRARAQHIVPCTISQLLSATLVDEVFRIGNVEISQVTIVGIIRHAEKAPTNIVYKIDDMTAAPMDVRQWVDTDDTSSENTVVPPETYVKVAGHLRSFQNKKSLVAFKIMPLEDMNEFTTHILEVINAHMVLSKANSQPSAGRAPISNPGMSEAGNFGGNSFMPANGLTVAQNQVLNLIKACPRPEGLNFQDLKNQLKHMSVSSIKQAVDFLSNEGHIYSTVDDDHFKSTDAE", "T1 sequence (P35244 whole entry, chain 3 of 3)": "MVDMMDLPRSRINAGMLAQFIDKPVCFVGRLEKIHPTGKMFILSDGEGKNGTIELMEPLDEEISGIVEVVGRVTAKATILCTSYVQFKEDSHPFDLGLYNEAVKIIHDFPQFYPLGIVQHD", "assay": "EMSA; 12.5 nM DNA; binding inhibited by MCI13E, MCI13F and CheSS19", "conditions": "tags: untagged; label: 5'-32P"}, "RPA p70 DBD-A/B [2]": {"molecular_target": "T2, RPA p70 DBD-A/B (Homo sapiens, UniProt P27694 P27694:181-422)", "T2 chain": "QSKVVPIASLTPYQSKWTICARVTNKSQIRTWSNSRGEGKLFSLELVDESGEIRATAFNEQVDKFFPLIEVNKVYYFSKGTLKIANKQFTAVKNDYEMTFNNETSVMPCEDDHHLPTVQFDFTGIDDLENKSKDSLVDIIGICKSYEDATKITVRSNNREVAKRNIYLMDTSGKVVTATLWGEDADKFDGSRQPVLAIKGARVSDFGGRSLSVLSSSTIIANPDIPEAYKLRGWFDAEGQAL", "assay": "EMSA; not inhibited by MCI13E or MCI13F", "conditions": "tags: His (pET15b, nickel-NTA purified); label: 5'-32P"}, "RPA p70 DBD-A/B [3]": {"molecular_target": "T2, RPA p70 DBD-A/B", "assay": "FP; 20 nM DNA; 10 mM HEPES pH 7.2, 100 mM NaCl; inhibited irreversibly by CheSS19", "conditions": "tags: His (pET15b, nickel-NTA purified); label: fluorescein (F)", "protocol": "In an experiment reported herein, DBD-A/B was incubated with CheSS 19 and then the reaction mix dialyzed overnight to remove dissociable inhibitor.\nReferring now to FIG. 3D. Bar graph showing results of fluorescence polarization analysis of CheSS19 inactivated RPA DBD-A/B. Referring now to FIG. 3D, RPA DBD-A/B was pre-incubated with vehicle (1% DMSO) or CheSS19 (1pmol in 1% DMSO) for 30 minutes at 37° C. Following incubation, the reaction mix was dialyzed versus H1 buffer overnight at 4° C. The protein was recovered and DNA binding activity measured by FP analysis of binding to an F-dT12 substrate was performed as described in \"Methods\". Bar 1, DNA control, Bar 2, control vehicle treated DBD-A/B, Bar 3, Chess19 treated DBD-A/B. The data represent the mean and range of two independent experiments.\nFluorescence polarization experiments were preformed as previously described (21). SMIs were diluted in H1 buffer (10 mM HEPES, pH 7.2, 1 mM DTT, 0.01% NP-40 and 100 mM NaCl) and the final DMSO concentration was kept below 1%."}, "[4]": {"molecular_target": "T1, RPA heterotrimer (p70/p34/p14, …)", "assay": "EMSA; inhibited irreversibly by MCI13E", "conditions": "tags: untagged; label: 5'-32P", "protocol": "Considering the differential inhibition observed between the anhydride and halo esters with respect to specificity, experiments were carried out to determine if the isoborneol halo-esters inhibited full-length RPA in an irreversible fashion. Full-length RPA was mixed with MCI13E or vehicle control and the reaction mixtures were then dialyzed overnight. Referring now to FIG. 5. Gel showing irreversible inactivation of full-length heterotrimeric RPA by MCI13E. Incubation of RPA with MCI13E, dialysis and recovery was performed as described for FIG. 3. DNA binding activity of the resulting protein was assessed by EMSA using a 5'-[^32P]-ss 34-base DNA as described in \"Methods\". Lanes 1-4 pre-dialysis, lanes 5 and 6 post dialysis. […] In fact, the degree of inhibition was similar to that observed for the MCI13E treated RPA before dialysis (FIG. 5 lanes 3 and 4). […] This activity is consistent with MCI13E and F and their reaction with RPA serving as a pharmacodynamic marker of RPA inhibition or as a biomarker for RPA expression and activity."}}, "data": [{"binder": "GGAGACCGAAGAGGAAAAGAAGGAGAGAGG (ssDNA)", "note": "[3Pc3 30-mer]", "values": [{"measurement": "binding result", "setting": "EcSSB", "result": "binds"}, {"measurement": "binding result", "setting": "[1]", "result": "binds"}]}, {"binder": "TTTTTTTTTTTT (ssDNA)", "note": "[dT12]", "values": [{"measurement": "binding result", "setting": "RPA p70 DBD-A/B [2]", "result": "binds"}]}, {"binder": "TTTTTTTTTTTT (ssDNA)", "note": "[F-dT12]", "values": [{"measurement": "binding result", "setting": "RPA p70 DBD-A/B [3]", "result": "binds"}]}, {"binder": "CTAGAAAGGGGGAAGAAAGGGAAGAGGCCAGAGA (ssDNA)", "note": "[34-mer]", "values": [{"measurement": "binding result", "setting": "[4]", "result": "binds"}]}]}
